By Kd is commonly meant the free concentration of one partner at which half of the binding sites on the other are occupied at equilibrium, for simple one-to-one binding. Read a high Kd as weaker binding.

The target of assay [1] is LOXL2 (lysyl oxidase-like 2) (human) (UniProt Q9Y4K0). Briefly: cell-based or functional assay.
The target is the same in assay [2]. Briefly: SPR, Bio-Rad ProteOn, amine coupling, 25 C. A general note: In SPR one partner is held on a chip, and binding of the other changes the refractive index at the surface.

LOXL2 (lysyl oxidase-like 2) (human), sequence (Q9Y4K0 26-774 limits assumed): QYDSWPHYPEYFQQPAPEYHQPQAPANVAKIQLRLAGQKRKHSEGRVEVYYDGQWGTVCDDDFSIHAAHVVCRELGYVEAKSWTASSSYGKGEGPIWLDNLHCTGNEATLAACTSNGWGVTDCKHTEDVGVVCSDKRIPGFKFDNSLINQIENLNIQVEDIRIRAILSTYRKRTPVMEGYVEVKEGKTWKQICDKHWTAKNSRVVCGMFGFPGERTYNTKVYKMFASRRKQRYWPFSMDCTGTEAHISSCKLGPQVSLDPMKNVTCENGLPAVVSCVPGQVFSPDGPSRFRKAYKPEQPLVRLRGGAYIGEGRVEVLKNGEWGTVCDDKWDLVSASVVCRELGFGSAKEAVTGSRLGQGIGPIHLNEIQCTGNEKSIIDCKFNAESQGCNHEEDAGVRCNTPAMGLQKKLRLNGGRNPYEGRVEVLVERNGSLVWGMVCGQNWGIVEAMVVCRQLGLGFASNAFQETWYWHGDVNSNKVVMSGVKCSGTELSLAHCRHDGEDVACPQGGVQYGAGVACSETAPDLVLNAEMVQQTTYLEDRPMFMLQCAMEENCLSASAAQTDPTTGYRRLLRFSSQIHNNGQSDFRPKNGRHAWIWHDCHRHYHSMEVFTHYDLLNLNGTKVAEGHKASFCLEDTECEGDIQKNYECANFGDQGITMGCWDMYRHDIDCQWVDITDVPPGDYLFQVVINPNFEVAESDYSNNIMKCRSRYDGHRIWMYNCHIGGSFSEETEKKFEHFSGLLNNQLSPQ

B1: anti-LOXL2 antibody AB0023 (murine monoclonal antibody) (antibody, V domains shown)
VH: QVQLQQSGAELVRPGTSVKVSCKASGYAFTYYLIEWVKQRPGQGLEWIGVINPGSGGTNYNEKFKGKATLTADKSSSTAYMQLSSLTSDDSAVYFCARNWMNFDYWGQGTTLTVSS
VL: DIVMTQAAPSVSVTPGESVSISCRSSKSLLHSNGNTYLYWFLQRPGQSPQFLIYRMSNLASGVPDRFSGSGSGTAFTLRISRVEAEDVGVYYCMQHLEYPYTFGGGTKLEIK
B1: in assay [1], the apparent IC50, LOXL2 enzymatic activity (amplex red/HRP coupled assay, 1,5-diaminopentane substrate) stood at 30 nM; the α (effect of the antibody on substrate affinity; mode of inhibition) stood at 1; the β (effect of the antibody on the rate of the enzyme; mode of inhibition) turned out to be 0.5. In assay [2], the dissociation constant (Kd) was 0.1 to 1 nM and the t1/2 was determined as 1.65 h.

These data come from patent US20120087917A1.
